± gives the standard deviation of the averaged measurements.
What was measured:
Saccharomyces cerevisiae [1] = assay: protein stability index of tFT-peptide fusion (C-terminal peptide) (PSI (0-1 scale)); higher = more stable (slower turnover)
Protocol: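 MPS profiling in S. cerevisiae of the tFT-X12 degron library: putative degron peptides plus stable controls, 12 aa, fused to the C-terminus of a sfGFP-mCherry timer. Cells are FACS-sorted into 8 mCherry/sfGFP bins and deep-sequenced. PSI runs from 0 (unstable) to 1 (stable). Backgrounds are wild type, das1Δ and doa10Δ at 30 °C, and wild type, das1Δ, cdc34-1 and cdc53-1 at 37 °C; 2-3 technical replicates each.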

Saccharomyces cerevisiae [2] = assay: as above; conditions: genetic background: wild type; temperature: 30 C
[3] = genetic background: cdc34-1, temperature: 37 C
[4] = genetic background: cdc53-1, temperature: 37 C
[5] = genetic background: das1 deletion, temperature: 30 C
[6] = genetic background: das1 deletion, temperature: 37 C
[7] = genetic background: doa10 deletion, temperature: 30 C
[8] = genetic background: wild type, temperature: 30 C
[9] = genetic background: wild type, temperature: 37 C
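Further: PSI is a weighted mean of sequencing reads over stability bins, variants kept only with over 10 reads, mCherry proximal and sfGFP distal, peptide attached via GGGS linker.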

| Sequence | protein stability index (Saccharomyces cerevisiae [1]; [3]) | protein stability index (Saccharomyces cerevisiae [1]; [4]) | protein stability index (Saccharomyces cerevisiae [1]; [5]) | protein stability index (Saccharomyces cerevisiae [1]; [6]) | protein stability index (Saccharomyces cerevisiae [1]; [7]) | protein stability index (Saccharomyces cerevisiae [1]; [8]) | protein stability index (Saccharomyces cerevisiae [1]; [9]) | protein stability index (Saccharomyces cerevisiae [2]) |
| --- | --- | --- | --- | --- | --- | --- | --- | --- |
| APCRVPVLGLVF | 0.249 ± 0.026 | 0.265 ± 0.0055 | 0.235 ± 0.036 | 0.364 ± 0.018 | 0.204 ± 0.016 | 0.257 ± 0.013 | 0.344 ± 0.025 | 0.327 ± 0.034 |
| FRQEVLHWRQHS | 0.622 ± 0.064 | 0.712 ± 0.032 | 0.633 ± 0.035 | 0.727 ± 0.028 | 0.167 ± 0.048 | 0.145 ± 0.035 | 0.332 ± 0.015 | 0.342 ± 0.077 |
| FFSSSASVLFII | 0.686 ± 0.11 | 0.7852 ± 0.0067 | 0.663 ± 0.029 | 0.79 ± 0.0075 | 0.19 ± 0.015 | 0.198 ± 0.016 | 0.394 ± 0.039 | 0.299 ± 0.016 |
| SSAQKVMELQIV | 0.664 ± 0.011 | 0.7179 ± 0.0062 | 0.648 ± 0.018 | 0.7361 ± 0.0023 | 0.223 ± 0.0048 | 0.257 ± 0.042 | 0.467 ± 0.035 | 0.404 ± 0.011 |
| WILSIVVWGKRV | 0.2245 ± 0.0016 | 0.363 ± 0.068 | 0.231 ± 0.025 | 0.433 ± 0.026 | 0.0761 ± 0.025 | 0.114 ± 0.017 | 0.209 ± 0.019 | 0.188 ± 0.068 |
| NSFASFVVVFVI | 0.371 ± 0.018 | 0.437 ± 0.047 | 0.264 ± 0.034 | 0.512 ± 0.015 | 0.1956 ± 0.00071 | 0.227 ± 0.036 | 0.472 ± 0.03 | 0.34 ± 0.036 |
| EVPVIGVLRSLL | 0.9376 ± 0.009 | 0.918 ± 0.014 | 0.804 ± 0.018 | 0.8784 ± 0.0044 | 0.773 ± 0.027 | 0.78 ± 0.023 | 0.847 ± 0.017 | 0.743 ± 0.043 |
| GACGLGMLIFIV | 0.585 ± 0.04 | 0.618 ± 0.03 | 0.427 ± 0.026 | 0.623 ± 0.015 | 0.256 ± 0.012 | 0.29 ± 0.02 | 0.511 ± 0.017 | 0.411 ± 0.0075 |
| FALAYFFVLKSF | 0.228 ± 0.019 | 0.246 ± 0.057 | 0.243 ± 0.045 | 0.423 ± 0.0084 | 0.0908 ± 0.011 | 0.0862 ± 0.02 | 0.1132 ± 0.001 | 0.172 ± 0.0026 |
| VPLVQRARLRLF | 0.639 ± 0.059 | 0.715 ± 0.02 | 0.607 ± 0.027 | 0.732 ± 0.026 | 0.109 ± 0.015 | 0.114 ± 0.012 | 0.206 ± 0.028 | 0.146 ± 0.025 |
| GFVRTVWLMCYV | 0.286 ± 0.027 | 0.341 ± 0.017 | 0.285 ± 0.025 | 0.417 ± 0.013 | 0.129 ± 0.017 | 0.161 ± 0.012 | 0.203 ± 0.013 | 0.245 ± 0.032 |
| SLLWLYSAFVWY | 0.302 ± 0.012 | 0.409 ± 0.011 | 0.347 ± 0.032 | 0.503 ± 0.016 | 0.188 ± 0.027 | 0.186 ± 0.023 | 0.386 ± 0.069 | 0.324 ± 0.05 |
| KCKIWFREVSMN | 0.658 ± 0.018 | 0.7475 ± 0.007 | 0.647 ± 0.015 | 0.729 ± 0.06 | 0.1748 ± 0.0015 | 0.216 ± 0.019 | 0.414 ± 0.027 | 0.32 ± 0.066 |
| QTGRVRGFVVSG | 0.689 ± 0.037 | 0.726 ± 0.024 | 0.632 ± 0.032 | 0.723 ± 0.02 | 0.645 ± 0.021 | 0.65 ± 0.008 | 0.719 ± 0.028 | 0.701 ± 0.048 |
| VGELYRLRKLHV | 0.69 ± 0.026 | 0.73 ± 0.013 | 0.607 ± 0.02 | 0.728 ± 0.015 | 0.222 ± 0.02 | 0.249 ± 0.035 | 0.506 ± 0.018 | 0.313 ± 0.035 |
| CSAARKDGLAPL | 0.697 ± 0.038 | 0.722 ± 0.02 | 0.649 ± 0.02 | 0.7342 ± 0.0011 | 0.633 ± 0.021 | 0.649 ± 0.029 | 0.719 ± 0.032 | 0.701 ± 0.024 |
| RVHYELEQIVIK | 0.632 ± 0.1 | 0.699 ± 0.019 | 0.581 ± 0.0072 | 0.664 ± 0.059 | 0.585 ± 0.053 | 0.574 ± 0.025 | 0.62 ± 0.064 | 0.518 ± 0.089 |
| SRFPARCLLCCW | 0.531 ± 0.029 | 0.52 ± 0.021 | 0.454 ± 0.036 | 0.583 ± 0.017 | 0.4309 ± 0.002 | 0.449 ± 0.018 | 0.546 ± 0.007 | 0.501 ± 0.031 |
| CVFVWFWCMTWV | 0.171 ± 0.089 | 0.164 ± 0.016 | 0.0811 ± 0.048 | 0.313 ± 0.15 | 0.105 ± 0.069 | 0.117 ± 0.11 | 0.345 ± 0.13 | 0.168 ± 0.0053 |
| FRWLAFALLFGC | 0.416 ± 0.011 | 0.477 ± 0.027 | 0.38 ± 0.012 | 0.495 ± 0.025 | 0.1758 ± 0.00032 | 0.166 ± 0.018 | 0.348 ± 0.0068 | 0.245 ± 0.0079 |

| Sequence | protein stability index (Saccharomyces cerevisiae [1]; [3]) | protein stability index (Saccharomyces cerevisiae [1]; [4]) | protein stability index (Saccharomyces cerevisiae [1]; [5]) | protein stability index (Saccharomyces cerevisiae [1]; [6]) | protein stability index (Saccharomyces cerevisiae [1]; [7]) | protein stability index (Saccharomyces cerevisiae [1]; [8]) | protein stability index (Saccharomyces cerevisiae [1]; [9]) | protein stability index (Saccharomyces cerevisiae [2]) |
| --- | --- | --- | --- | --- | --- | --- | --- | --- |
| HSVPPYPTPPPF | 0.668 ± 0.054 | 0.739 ± 0.0011 | 0.337 ± 0.041 | 0.616 ± 0.0097 | 0.302 ± 0.016 | 0.372 ± 0.016 | 0.586 ± 0.025 | 0.463 ± 0.002 |
| FFMLLYSFFTFD | 0.434 ± 0.0044 | 0.50402 ± 2.8e-06 | 0.38 ± 0.033 | 0.51926 ± 0.00029 | 0.348 ± 0.004 | 0.375 ± 0.035 | 0.506 ± 0.024 | 0.418 ± 0.014 |
| SLFERLSPVLCF | 0.249 ± 0.037 | 0.2784 ± 0.0027 | 0.23 ± 0.024 | 0.3548 ± 0.00059 | 0.214 ± 0.008 | 0.224 ± 0.017 | 0.30185 ± 0.00011 | 0.308 ± 0.011 |
| AVSFTLVLCSCF | 0.474 ± 0.025 | 0.489 ± 0.029 | 0.416 ± 0.039 | 0.473 ± 0.023 | 0.389 ± 0.0073 | 0.401 ± 0.019 | 0.444 ± 0.0074 | 0.449 ± 0.023 |
| YLGPHLRWARCV | 0.495 ± 0.018 | 0.715 ± 0.02 | 0.662 ± 0.027 | 0.768 ± 0.025 | 0.1228 ± 0.00053 | 0.125 ± 0.016 | 0.183 ± 0.033 | 0.254 ± 0.015 |
| AVCVGILIWATV | 0.0816 ± 0.0045 | 0.0998 ± 0.009 | 0.176 ± 0.029 | 0.275 ± 0.013 | 0.142 ± 0.018 | 0.165 ± 0.025 | 0.264 ± 0.017 | 0.314 ± 0.08 |
| FLRFVFSFTFFV | 0.387 ± 0.0054 | 0.382 ± 0.019 | 0.408 ± 0.031 | 0.411 ± 0.0061 | 0.265 ± 0.0046 | 0.24 ± 0.028 | 0.3144 ± 0.0024 | 0.321 ± 0.0054 |
| SWAILFVLEGFK | 0.4673 ± 0.0029 | 0.548 ± 0.058 | 0.37 ± 0.021 | 0.561 ± 0.0092 | 0.318 ± 0.019 | 0.366 ± 0.011 | 0.5837 ± 0.004 | 0.477 ± 0.067 |
| SGVHWFRGNSWG | 0.697 ± 0.00077 | 0.749 ± 0.012 | 0.653 ± 0.0093 | 0.74 ± 0.027 | 0.657 ± 0.0087 | 0.646 ± 0.013 | 0.716 ± 0.036 | 0.712 ± 0.0087 |
| WAFRLWWFFCLV | 0.402 ± 0.048 | 0.452 ± 0.02 | 0.437 ± 0.022 | 0.579 ± 0.067 | 0.277 ± 0.01 | 0.257 ± 0.015 | 0.273 ± 0.0095 | 0.375 ± 0.034 |
| CPFFFFSLIFLF | 0.16 ± 0.058 | 0.214 ± 0.044 | 0.228 ± 0.041 | 0.329 ± 0.011 | 0.349 ± 0.025 | 0.193 ± 0.03 | 0.284 ± 0.011 | 0.298 ± 0.017 |
| LVTRVFVYFSIG | 0.498 ± 0.061 | 0.583 ± 0.035 | 0.403 ± 0.034 | 0.554 ± 0.036 | 0.323 ± 0.0055 | 0.35 ± 0.034 | 0.514 ± 0.0066 | 0.413 ± 0.012 |
| HSLLLWLLVFFR | 0.441 ± 0.013 | 0.511 ± 0.01 | 0.388 ± 0.027 | 0.516 ± 0.0056 | 0.3609 ± 0.0034 | 0.367 ± 0.018 | 0.508 ± 0.012 | 0.413 ± 0.036 |
| RGGGGGTWVKMG | 0.592 ± 0.011 | 0.733 ± 0.0075 | 0.653 ± 0.029 | 0.758 ± 0.012 | 0.118 ± 0.025 | 0.135 ± 0.02 | 0.217 ± 0.016 | 0.258 ± 0.055 |
| LSIALPFPVLCR | 0.0213 ± 0.0045 | 0.038 ± 0.03 | 0.115 ± 0.019 | 0.091924 ± 4.9e-05 | 0.0844 ± 0.017 | 0.0877 ± 0.025 | 0.0459 ± 0.011 | 0.134 ± 0.012 |
| VPLHPPPTVPYI | 0.674 ± 0.063 | 0.728 ± 0.014 | 0.66 ± 0.015 | 0.7244 ± 0.0069 | 0.679 ± 0.011 | 0.675 ± 0.034 | 0.7038 ± 0.0066 | 0.704 ± 0.03 |
| PTKRLFNNNKKI | 0.589 ± 0.13 | 0.686 ± 0.057 | 0.649 ± 0.03 | 0.731 ± 0.013 | 0.184 ± 0.0066 | 0.161 ± 0.03 | 0.408 ± 0.024 | 0.308 ± 0.015 |
| PWIASCRISFLL | 0.6766 ± 0.0032 | 0.734 ± 0.014 | 0.6 ± 0.0099 | 0.7393 ± 0.0037 | 0.338 ± 0.0046 | 0.347 ± 0.012 | 0.532 ± 0.029 | 0.402 ± 0.0046 |
| VLPQSVWILVRV | 0.0621 ± 0.016 | 0.0737 ± 0.0062 | 0.172 ± 0.024 | 0.236 ± 0.012 | 0.144 ± 0.021 | 0.155 ± 0.032 | 0.1936 ± 0.0014 | 0.2609 ± 0.0026 |

— the supplement of paper PMC10724198
